Results from US20130209454A1 (CALIFORNIA INSTITUTE OF TECHNOLOGY, published 2013).

What was measured:
Experiment in all cases: cell-based or functional assay
[1] = target: HIV-1 strain CNE20 envelope (gp120) (HIV-1)
[2] = target: HIV-1 strain 6540.v4.c1 envelope (gp120) (HIV-1)
[3] = target: HIV-1 strain ZM249M.PL1 envelope (gp120) (HIV-1)
[4] = target: HIV-1 strain HIV-16845-2.22 envelope (gp120) (HIV-1)
[5] = target: HIV-1 strain T251-18 envelope (gp120) (HIV-1)
[6] = target: HIV-1 strain R2184.04 envelope (gp120) (HIV-1)
[7] = target: HIV-1 strain T257-31 envelope (gp120) (HIV-1)
[8] = target: HIV-1 strain C2101.c01 envelope (gp120) (HIV-1)
[9] = target: HIV-1 strain RHPA4259.7 envelope (gp120) (HIV-1)
[10] = target: HIV-1 strain 0815.v3.c3 envelope (gp120) (HIV-1)
[11] = target: HIV-1 strain 231966.c02 envelope (gp120) (HIV-1)
[12] = target: HIV-1 strain 1054_07_TC4_1499 envelope (gp120) (HIV-1)
[13] = target: HIV-1 strain SC422661.8 envelope (gp120) (HIV-1)
[14] = target: HIV-1 strain 231965.c01 envelope (gp120) (HIV-1)
[15] = target: HIV-1 strain THRO4156.18 envelope (gp120) (HIV-1)
[16] = target: HIV-1 strain 3415.v1.c1 envelope (gp120) (HIV-1)
[17] = target: HIV-1 strain P1981_C5_3 envelope (gp120) (HIV-1)
[18] = target: HIV-1 strain T278-50 envelope (gp120) (HIV-1)
[19] = target: HIV-1 strain ZM247v1(Rev-) envelope (gp120) (HIV-1)
[20] = target: HIV-1 strain Q23.17 envelope (gp120) (HIV-1)
[21] = target: HIV-1 strain Ce2010_F5 envelope (gp120) (HIV-1)
[22] = target: HIV-1 strain 0330.v4.c3 envelope (gp120) (HIV-1)
[23] = target: HIV-1 strain QH0692.42 envelope (gp120) (HIV-1)
[24] = target: HIV-1 strain 1006_11_C3_1601 envelope (gp120) (HIV-1)
[25] = target: HIV-1 strain 3016.v5.c45 envelope (gp120) (HIV-1)
[26] = target: HIV-1 strain 62357_14_D3_4589 envelope (gp120) (HIV-1)
[27] = target: HIV-1 strain REJO4541.67 envelope (gp120) (HIV-1)
[28] = target: HIV-1 strain CNE17 envelope (gp120) (HIV-1)
[29] = target: HIV-1 strain P0402_c2_11 envelope (gp120) (HIV-1)
[30] = target: HIV-1 strain Du172.17 envelope (gp120) (HIV-1)
[31] = target: HIV-1 strain WITO4160.33 envelope (gp120) (HIV-1)
[32] = target: HIV-1 strain 211-9 envelope (gp120) (HIV-1)
[33] = target: HIV-1 strain Du422.1 envelope (gp120) (HIV-1)
[34] = target: HIV-1 strain R1166.c01 envelope (gp120) (HIV-1)
[35] = target: HIV-1 strain 6535.3 envelope (gp120) (HIV-1)
[36] = target: HIV-1 strain Ce2060_G9 envelope (gp120) (HIV-1)
[37] = target: HIV-1 strain CNE53 envelope (gp120) (HIV-1)
[38] = target: HIV-1 strain ZM214M.PL15 envelope (gp120) (HIV-1)
[39] = target: HIV-1 strain Ce1176_A3 envelope (gp120) (HIV-1)
[40] = target: HIV-1 strain 6811.v7.c18 envelope (gp120) (HIV-1)
[41] = target: HIV-1 strain X1254_c3 envelope (gp120) (HIV-1)

B1: NIH45-46 IgG (antibody, V domains shown)
VH: QVRLSQSGGQMKKPGESMRLSCRASGYEFLNCPINWIRLAPGRRPEWMGWLKPRGGAVNYARKFQGRVTMTRDVYSDTAFLELRSLTSDDTAVYFCTRGKYCTARDYYNWDFEHWGRGAPVTVSS
VL: EIVLTQSPATLSLSPGETAIISCRTSQSGSLAWYQQRPGQAPRLVIYSGSTRAAGIPDRFSGSRWGADYNLSISNLESGDFGVYYCQQYEFFGQGTKVQVDI
- neutralization IC80 [1]: > 50 µg/mL
- neutralization IC80 [2]: > 50 µg/mL
- neutralization IC80 [3]: 0.053 µg/mL
- neutralization IC80 [4]: 22.6 µg/mL
- neutralization IC80 [5]: 3.68 µg/mL
- neutralization IC80 [6]: 0.127 µg/mL
- neutralization IC80 [7]: 1.38 µg/mL
- neutralization IC80 [8]: 31.4 µg/mL
- neutralization IC80 [9]: 0.047 µg/mL
- neutralization IC80 [10]: 0.052 µg/mL
- neutralization IC80 [11]: 9.64 µg/mL
- neutralization IC80 [12]: 0.404 µg/mL
- neutralization IC80 [13]: 0.13 µg/mL
- neutralization IC80 [14]: 0.126 µg/mL
- neutralization IC80 [15]: 8.22 µg/mL
- neutralization IC80 [16]: 0.086 µg/mL
- neutralization IC80 [17]: 0.24 µg/mL
- neutralization IC80 [18]: > 50 µg/mL
- neutralization IC80 [19]: 24.5 µg/mL
- neutralization IC80 [20]: 0.5 µg/mL
- neutralization IC80 [21]: 0.357 µg/mL
- neutralization IC80 [22]: 0.3 µg/mL
- neutralization IC80 [23]: 1.71 µg/mL
- neutralization IC80 [24]: 0.196 µg/mL
- neutralization IC80 [25]: > 50 µg/mL
- neutralization IC80 [26]: 0.19 µg/mL
- neutralization IC80 [27]: 0.035 µg/mL
- neutralization IC80 [28]: 0.734 µg/mL
- neutralization IC80 [29]: 0.214 µg/mL
- neutralization IC80 [30]: > 50 µg/mL
- neutralization IC80 [31]: 0.26 µg/mL
- neutralization IC80 [32]: > 50 µg/mL
- neutralization IC80 [33]: > 50 µg/mL
- neutralization IC80 [34]: 1.21 µg/mL
- neutralization IC80 [35]: 0.54 µg/mL
- neutralization IC80 [36]: 0.29 µg/mL
- neutralization IC80 [37]: 0.039 µg/mL
- neutralization IC80 [38]: 0.59 µg/mL
- neutralization IC80 [39]: 3.17 µg/mL
- neutralization IC80 [40]: 0.113 µg/mL
- neutralization IC80 [41]: 0.107 µg/mL
